The record followed here is paper PMC6446846 (The Journal of Cell Biology, 2019).

For the test, the target named is T1, GST-KBP (kinesin-binding protein) (human, UniProt Q96EK5 1-621).
T1 sequence (looked up): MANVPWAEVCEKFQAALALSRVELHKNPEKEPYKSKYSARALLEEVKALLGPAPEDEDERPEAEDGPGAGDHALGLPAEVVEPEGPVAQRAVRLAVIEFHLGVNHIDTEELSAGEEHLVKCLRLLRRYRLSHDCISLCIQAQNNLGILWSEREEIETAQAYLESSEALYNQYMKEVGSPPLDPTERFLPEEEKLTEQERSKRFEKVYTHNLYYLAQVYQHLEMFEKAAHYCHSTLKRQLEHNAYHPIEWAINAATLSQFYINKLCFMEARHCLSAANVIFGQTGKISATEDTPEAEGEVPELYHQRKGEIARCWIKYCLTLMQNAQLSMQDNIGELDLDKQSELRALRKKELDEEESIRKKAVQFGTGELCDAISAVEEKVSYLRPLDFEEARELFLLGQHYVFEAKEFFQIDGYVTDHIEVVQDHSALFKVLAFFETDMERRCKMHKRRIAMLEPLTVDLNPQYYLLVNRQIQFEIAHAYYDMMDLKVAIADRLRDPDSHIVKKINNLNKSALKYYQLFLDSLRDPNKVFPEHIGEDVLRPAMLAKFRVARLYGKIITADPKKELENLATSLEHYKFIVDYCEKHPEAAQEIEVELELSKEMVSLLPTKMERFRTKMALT
As to the kind of experiment: pull-down.

B1: KIF18A-N480-GFP-His6 (domain or fragment, human, UniProt Q8NI77 1-480, looked up)
chain: MSVTEEDLCHHMKVVVRVRPENTKEKAAGFHKVVHVVDKHILVFDPKQEEVSFFHGKKTTNQNVIKKQNKDLKFVFDAVFDETSTQSEVFEHTTKPILRSFLNGYNCTVLAYGATGAGKTHTMLGSADEPGVMYLTMLHLYKCMDEIKEEKICSTAVSYLEVYNEQIRDLLVNSGPLAVREDTQKGVVVHGLTLHQPKSSEEILHLLDNGNKNRTQHPTDMNATSSRSHAVFQIYLRQQDKTASINQNVRIAKMSLIDLAGSERASTSGAKGTRFVEGTNINRSLLALGNVINALADSKRKNQHIPYRNSKLTRLLKDSLGGNCQTIMIAAVSPSSVFYDDTYNTLKYANRAKDIKSSLKSNVLNVNNHITQYVKICNEQKAEILLLKEKLKAYEEQKAFTNENDQAKLMISNPQEKEIERFQEILNCLFQNREEIRQEYLKLEMLLKENELKSFYQQQCHKQIEMMCSEDKVEKATGKR
As for B1, the binding result is on record as “binds”.

B2: His6-KIF15-N420 (domain or fragment, human, UniProt Q9NS87 1-420, looked up)
chain: MAPGCKTELRSVTNGQSNQPSNEGDAIKVFVRIRPPAERSGSADGEQNLCLSVLSSTSLRLHSNPEPKTFTFDHVADVDTTQESVFATVAKSIVESCMSGYNGTIFAYGQTGSGKTFTMMGPSESDNFSHNLRGVIPRSFEYLFSLIDREKEKAGAGKSFLCKCSFIEIYNEQIYDLLDSASAGLYLREHIKKGVFVVGAVEQVVTSAAEAYQVLSGGWRNRRVASTSMNRESSRSHAVFTITIESMEKSNEIVNIRTSLLNLVDLAGSERQKDTHAEGMRLKEAGNINRSLSCLGQVITALVDVGNGKQRHVCYRDSKLTFLLRDSLGGNAKTAIIANVHPGSRCFGETLSTLNFAQRAKLIKNKAVVNEDTQGNVSQLQAEVKRLKEQLAELASGQTPPESFLTRDKKKTNYMEYFQE
With B2, the binding result is “binds”.
